This note sets out measurements from the Human Domainome abundance scans (Beltran et al. 2025).

± gives the uncertainty stated by the source.

The nature of the series: abundance fitness (aPCA) (normalised: wild type 0, dead -1); higher = more abundant; growth selection in yeast, the domain comes from the species named. To be noted: Homo sapiens.
As for “Homeobox expressed in ES cells 1 A114T, Q9UBX0”, the abundance fitness was 0.493 ± 0.057.
“Homeobox expressed in ES cells 1 C131H, Q9UBX0” yielded an abundance fitness of 0.419 ± 0.15.
Take “Homeobox expressed in ES cells 1 D136F, Q9UBX0”: the abundance fitness amounted to 0.211 ± 0.24.
Next, “Homeobox expressed in ES cells 1 D140E, Q9UBX0”: -0.047 ± 0.07; “Homeobox expressed in ES cells 1 D150A, Q9UBX0”: 0.089 ± 0.12; “Homeobox expressed in ES cells 1 G134D, Q9UBX0”: -0.02 ± 0.17.
To “Homeobox expressed in ES cells 1 I120L, Q9UBX0” belongs -0.192 ± 0.15.
“Homeobox expressed in ES cells 1 I135V, Q9UBX0” returned an abundance fitness of -0.069 ± 0.073.
Next, “Homeobox expressed in ES cells 1 I152V, Q9UBX0”: -0.315 ± 0.12; “Homeobox expressed in ES cells 1 I154V, Q9UBX0”: -0.028 ± 0.12.
Next, “Homeobox expressed in ES cells 1 K164W, Q9UBX0”: -0.547 ± 0.16; “Homeobox expressed in ES cells 1 N118Q, Q9UBX0”: -0.35 ± 0.35; “Homeobox expressed in ES cells 1 N125A, Q9UBX0”: -0.36 ± 0.12.
To “Homeobox expressed in ES cells 1 N130T, Q9UBX0” belongs -0.144 ± 0.066; to “Homeobox expressed in ES cells 1 P111N, Q9UBX0”, 0.704 ± 0.15.
“Homeobox expressed in ES cells 1 Q117L, Q9UBX0” gave an abundance fitness of -0.548 ± 0.16.
Substance “Homeobox expressed in ES cells 1 Q143M, Q9UBX0” gave an abundance fitness of -0.011 ± 0.19.
Next, “Homeobox expressed in ES cells 1 R128A, Q9UBX0”: -0.277 ± 0.16.
To “Homeobox expressed in ES cells 1 V122E, Q9UBX0” belongs 0.12 ± 0.15.
Next, “Homeobox expressed in ES cells 1 V129Q, Q9UBX0”: 0.143 ± 0.25.
